Data from publication PMC4673316.

Target: ClpP1/P2 heptameric ring 3ClpP1 + 4ClpP2 (Synechococcus elongatus) (UniProt P54415)
Test: native MS; nano-ESI Q-ToF, 200 mM ammonium acetate with 2 mM TEA (weakly denaturing)

stoichiometry N: 2
Substance: ClpP1/P2 heptameric ring 3ClpP1 + 4ClpP2 (from UniProt P54415 1-197; O34125 1-240) (complex)
